Assay results as given in patent US5767235.

The substances below were run against human-thrombin (product of Sigma) (human) (UniProt P00734) (assay: not given).

Substance | 50% Inhibition Concentration (clotting assay) [ng/mL] | Potency
peptide (I) Suc-Phe-Glu-Pro-Ile-Pro-Glu-Tyr-Tyr-OH | 20000 | 0.83
peptide (J) Suc-Phe-Glu-Pro-Ile-Pro-Glu-Tyr-Tyr-NH2 | 98400 | 0.07
peptide (K) Suc-Phe-Glu-Pro-Ile-Pro-Glu-Tyr-Tyr-NH(CH2)2COOH | 30200 | 0.21
peptide (Y) Suc-Phe-Glu-Pro-Ile-Pro-Glu-Tyr-Tyr-Leu-NHPO(OH)2 | 153000 | 0.04
peptide (N) Suc-Phe-Glu-Pro-Ile-Pro-Glu-Tyr-Tyr-NH(CH2)3OH | 103000 | 0.06
peptide (A) Gly-Asp-Phe-Glu-Glu-Ile-Pro-Glu-Tyr-Tyr-Leu-Gln | 14700 | 0.45
peptide (S) Suc-Phe-Glu-Pro-Ile-Pro-Glu-Tyr-Tyr-Leu-Tau-NH2 | 99600 | 0.07
peptide (C) Suc-Gly-Asp-Phe-Glu-Pro-Ile-Pro-Glu-Tyr-Tyr-Leu-Gln-OH | 3750 | 1.76
peptide (R) Suc-Phe-Glu-Pro-Ile-Pro-Glu-Tyr-Tyr-Leu-NHEt | 36100 | 0.18
peptide (B) Gly-Asp-Phe-Glu-Glu-Ile-Pro-Tyr-Tyr-Tyr-Leu-Gln | 13800 | 0.48
peptide (O) Suc-Phe-Glu-Pro-Ile-Pro-Glu-Tyr-Tyr-(L)Asu(OMe)OMe | 35300 | 0.19
peptide (L) Suc-Phe-Glu-Pro-Ile-Pro-Glu-Tyr-Tyr-NH(CH2)4COOH | 15600 | 0.42
peptide (W) Suc-Phe-Glu-Pro-Ile-Pro-Glu-Tyr-Tyr-Leu-(D)Asu(NH2)NH2 | 35000 | 0.19
peptide (P) Suc-Phe-Glu-Pro-Ile-Pro-Glu-Tyr-Tyr-Leu-ol | 104000 | 0.06
peptide (V) Suc-Phe-Glu-Pro-Ile-Pro-Glu-Tyr-Tyr-Leu-(L)Asu(OMe)OMe | 30400 | 0.22
hirudin HV-1 | – | 95
peptide (U) Suc-Phe-Glu-Pro-Ile-Pro-Glu-Tyr-Tyr-Leu-(D)Asu(OMe)OMe | 47500 | 0.14

These substances were tested against human-thrombin (product of Sigma) (human) (UniProt P00734) (assay: chromogenic thrombin inhibition assay, potency column of Table 3 (hirudin HV-1 = 1)).

Substance | Potency
hirudin HV-1 | 1
